In the supplement of paper PMC9170038:

System: MS2 coat protein
Experiment: apparent KD of MS2 coat protein; designed switch direction (-1 OFF switch, 1 ON switch): -1; higher = weaker reporter binding
Summary of the method: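 RNA switches sharing common flanks were transcribed by stalled E. coli RNA polymerase on Illumina chips. A doubling series of SNAP-549-labelled MS2 coat protein, from 0.7 or 1.5 nM to 3 µM, was applied in Tris-HCl pH 7.5 buffer with KCl, MgCl2, BSA, DTT, tRNA and Tween-20. Each step lasted 0.8–1.5 h at the bottom of the series and 10–20 min at the top. Normalised cluster fluorescence was curve-fitted, giving apparent KD as the per-design median over clusters.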

[1] = Eterna round: R95, input ligand: microRNA oligo, concentration not stated
[2] = Eterna round: R95, input ligand: FMN 200 uM
[3] = Eterna round: R95, input ligand: none
[4] = input ligand: microRNA oligo, concentration not stated

| Sequence | apparent KD of MS2 coat protein (input ligand: FMN 200 uM) [nM] | apparent KD of MS2 coat protein (input ligand: none) [nM] | apparent KD of MS2 coat protein [1] [nM] | apparent KD of MS2 coat protein [2] [nM] | apparent KD of MS2 coat protein [3] [nM] | apparent KD of MS2 coat protein [4] [nM] |
| --- | --- | --- | --- | --- | --- | --- |
| CUGUAGUCAGGAUAUACAUGAGGAUCACCCAUGUAAAAUUUUAAUUUAAUUUGAAGGUGUAGAAGGGACCAGUC [Ex3 #26] (Eterna round: R97, puzzle: Exclusion 3) | 30.1 | 38.5 | – | – | – | – |
| CUUCGACAUGAGGAUCACCCAUGUCAGGAUAUUGUGUAUCGGGUUUUUUACGGUAAGGCAAGAAGGGAUGUGUG [LRO-Excl1-08] (puzzle: Exclusion 1) | – | – | 29.9 | – | – | – |
| AAGUACCGUCACGAUAGUGAUGGUACAACAAGUGGUGAAACAUGAGGAUCACCCAUGUCCUCAAUUGCUCGUCUUAU [Sensor 3 - 85] (puzzle: Sensor v3, turn-off variant 2) | – | – | 231 | 1030 | 999 | – |
| GAUGGAGAGCAGGAUAUCUUGGGUAAGCAUCAUAGAGAAGGGCUCACAUGAGGAUCACCCAUGUGGUCCUAGAA [Ateedza] (puzzle: Exclusion 6) | – | – | 16.2 | 30.7 | 14.9 | – |
| ACCAUUUUACGAUAUGUGCACAUGAGGAUCACCCAUGUUCCGAUAAACAUUUGAAGUACAGCAGGCUGCUCGAUCUG [Eternabot (L2) Solution 45] (Eterna round: R97, puzzle: Sensor, turn-off variant 1) | 94.2 | 87.4 | – | – | – | – |
| GGGCCCGGAGGAUAUACAAUUUUGGGCCGAAAGGCCCGGGUACAUGAGGAUCACCCAUGUAGAAGGCCGGGCCC [-41.7, -39.1 kcal A 24%, 5a,0] (Eterna round: R97, puzzle: Exclusion 2) | 134 | 32.4 | – | – | – | – |
| UGUUGUUACGCAGGAUAUGAGGAUCACCCAUAUCAGGAUAUCGAAAGAGAAUUUCUGAGGAUCACCCAGAAGGGCGGGUUAACA [pwkr exNG2 2xF5 2xFMN.37] (Eterna round: R96, puzzle: Exclusion NG 2) | 125 | 47.7 | – | – | – | 40.3 |
| UUGCAGUCGUCAGGAUAUAGUAUUACGGCCUUUCAUUUCUUCAUACAUGAGGAUCACCCAUGUCGCUAGAAGGGCUUCUCGCUU [salish99_ExNG2_r04_109] (Eterna round: R96, puzzle: Exclusion NG 2) | 15.3 | 17.6 | – | – | – | 14.6 |
| CAGUACUGAGGAUAUACAUGAGGAUCACCCAUGUGGUCCAGCUAGGAAACUAGCAAAAGUAGAAGGCAGUACUG [salish99_ex3_r3_083] (puzzle: Exclusion 3) | – | – | 71.5 | 12.5 | 218 | – |
| AGAUGUAGAUACCGAUCCUACAUGAGGAUCACCCAUGUAGCUAGACGUGCUCGCGUGGCUCGUCAGACUACCAGUAG [salish99_TOv1_r3_091] (puzzle: Sensor v3, turn-off variant 1) | – | – | 211 | 243 | 281 | – |
| ACGUGAUAUCUGUCGGUGGACAUGAGGAUCACCCAUGUAAGCUUUUUGCUCGUCUUACAACCCGGUGACAGACCUUC [Essodiis] (puzzle: Sensor v3, turn-off variant 1) | – | – | 275 | 138 | 166 | – |
| CUGAGGUAGCGGUCCUAUGACAUGAGGAUCACCCAUGUGCCUUGCUACAAGCUUUUUGCUCGUCUUAUGAUUCUCGG [JL Atriat mod 9] (puzzle: Sensor v3, turn-off variant 1) | – | – | 107 | 47.8 | 51.9 | – |
| CGUCUGUCAGGAUAUAGUUACAUAGACAUGAGGAUCACCCAUGUGACGUGGGACUAGUGACUAGAAGGGACGAACG [EX5 #71] (Eterna round: R97, puzzle: Exclusion 5) | 58.7 | 28.8 | – | – | – | – |
| AAUACACAUGAGGAUCACCCAUGUUAGGAUAUGAGCAGACAGACAGACAGACAGACGAUCAGAAGGAAUAGGAA [Excls1-V] (puzzle: Exclusion 1) | – | – | 25.4 | 26.1 | 32.9 | – |
| CUGUUCCAUGUAGGAUAUGCAUAUUCUCAUUAUGCAGAAGGACAUGAGGAUCACCCAUGUAUGUUAUUAUCAUAUGUUACAUGU [Design 4] (Eterna round: R96, puzzle: Exclusion NG 1) | – | – | – | – | – | 27.2 |
| UGUGUGAGACAGGAUAUGCUGGAUGAGAGGCAGGUAGAAGGGUCUACAUGAGGAUCACCCAUGUGGCCGGUUGG [Ex6 #72] (Eterna round: R97, puzzle: Exclusion 6) | 26.9 | 26.3 | – | – | – | – |
| CGUGUCUGAUAGGAUAUGACUGUUCAUAGAUGGUUAGAAGGAUCGACAUGAGGAUCACCCAUGUAGGGCUAGCG [Eternabot (L1) Solution 65] (Eterna round: R97, puzzle: Exclusion 6) | 104 | 219 | – | – | – | – |

| Sequence | apparent KD of MS2 coat protein (input ligand: FMN 200 uM) [nM] | apparent KD of MS2 coat protein (input ligand: none) [nM] | apparent KD of MS2 coat protein [1] [nM] | apparent KD of MS2 coat protein [2] [nM] | apparent KD of MS2 coat protein [3] [nM] | apparent KD of MS2 coat protein [4] [nM] |
| --- | --- | --- | --- | --- | --- | --- |
| AUUUGCACGCUGCGGUCCUACAUGAGGAUCACCCAUGUGGUCUGGUGGCGUGGGUCGCCGGACUUGGCUCGUCUUGG [salish99_S_TOV1_R5_034] (Eterna round: R97, puzzle: Sensor, turn-off variant 1) | 14.9 | 14.7 | – | – | – | – |
| CGAGGUAGAGGAUAUACGUGGAAAUAGAUUCAUGUUAAUCUACAUGAGGAUCACCCAUGUAGAAGGCUAUAGCG [JR_Ex2_Sub075] (Eterna round: R97, puzzle: Exclusion 2) | 80 | 24.9 | – | – | – | – |
| UACAAGCUGCUCUAAUAGAACAUGAGGAUCACCCAUGUUGCUAAACAUGAAAGAAUUGGCUCCGCAUGGAUUGCUCG [Eternabot (L2) Solution 9] (Eterna round: R97, puzzle: Sensor, turn-off variant 1) | 31.9 | 33.6 | – | – | – | – |
| UUGUUACGAUUAGGAUAUUAUAGAUUGAAUAGUAUGAUUUACAUGAGGAUCACCCAUGUUACAUUUAAGAAGGAAUCGAAUUAU [JR_ExcNG2_Sub089] (Eterna round: R96, puzzle: Exclusion NG 2) | – | – | – | – | – | 16.1 |
| UUUUUAUAUGAAGGAUAUACUUAACAUGAGGAUCACCCAUGUGGUGUUGUGAGUGAGUGAGUUUAGUAGAAGGUCAAGUAUUUC [JMF's solution 43] (Eterna round: R96, puzzle: Exclusion NG 2) | 752 | 731 | – | – | – | 329 |
| UUUUAACAUGAGGAUCACCCAUGUGAGGAUAUCGAAAUUUAUAUUAAUAUUAAUAAAACGAGAAGGCACAUUUU [JMF 4] (puzzle: Exclusion 1) | – | – | 75.1 | – | – | – |
| AAAAAAAGACAAGAGGAGAAUCGUCUUAAAAAUCCUCAGACAUGAGGAUCACCCAUGUAAAAUGAUCGAAAGAUCAA [Mat - Sensor v2 - ver2 - JL mod - D42] (Eterna round: R96, puzzle: Sensor v2, turn-off variant 2) | 39.7 | 40.6 | – | – | – | 40 |
| GGAUCGAGUGUGAGGAUAUGCUGGUCCUUGGAUCAGCAGAAGGCACAUGAGGAUCACCCAUGUGAUCAAGAUCC [Eli bmx4 4.76] (Eterna round: R97, puzzle: Brourd's mod of Exclusion 4) | 50.9 | 712 | – | – | – | – |
| UUUGAAUAGGUAGGAUAUACUUUCAAUUUUCUUUUCCUUACAUGAGGAUCACCCAUGUUUACAUUGUAGAAGGACCUCAUUGAU [JR_ExcNG2_Sub048] (Eterna round: R96, puzzle: Exclusion NG 2) | – | – | – | – | – | 193 |
| UACAUGAGGAUCACCCAUGUUUUGUCGUGUAUGGUAUUUAUCUAGGAUAUCAAUGUAUUUAUGUAUGAGAAGGAGAAUAUUAAU [JMF's solution 47] (Eterna round: R96, puzzle: Exclusion NG 3) | – | – | – | – | – | 32.3 |
| AGCGAAGAGACAGGAUAUGAGAAUAGAUAGAGCUCAGAAGGGUCACAUGAGGAUCACCCAUGUAAAGUCUUGAGGCUGCGUGGU [Prohibition 10 - Jieux - Exclusion NG 1] (Eterna round: R96, puzzle: Exclusion NG 1) | 123 | 61.7 | – | – | – | 41.1 |
| UUAAUUUGAGGAUAUACUAUUAACCACAUGAGGAUCACCCAUGUUCUAUCAUGUAUAUGUGUAGAAGGCAGAAUGC [JR_Ex5_Sub071] (Eterna round: R97, puzzle: Exclusion 5) | 58.1 | 50.7 | – | – | – | – |
| UUAUUUCAAGCAAGAUCCUACAUGAGGAUCACCCAUGUGCUCGUCUUAUAAGGUACAGUGACGAAAGUCACAGUACC [Sensor 3, v1 - 000] (puzzle: Sensor v3, turn-off variant 1) | – | – | 152 | 173 | 202 | – |
| GAGCUGUGAGGAUAUACAUGAGGAUCACCCAUGUUAAGGAAGUCGGGAUUAAUUUGGUGUAGAAGGCGCUUAUU [JR_Ex3_Sub020] (Eterna round: R97, puzzle: Exclusion 3) | 44 | 42.5 | – | – | – | – |
| UUUCGGCAUGUAGGAUAUGGAUCCGAUUAGGAUUUAGAAGGACAUGAGGAUCACCCAUGUGCAUUUAAUUAGUCAUUACCGUUU [EXclNG1-LROPPY07] (Eterna round: R96, puzzle: Exclusion NG 1) | 79.9 | 67.1 | – | – | – | 42.8 |
| UGCCGUUGAGGAUAUACAUAGAAAUAGAUUCAUGUAAAACUACAUGAGGAUCACCCAUGUAGAAGGCAAUGGCU [Mat - Exclusion 2 - JL Mod - D51] (Eterna round: R97, puzzle: Exclusion 2) | 128 | 23.9 | – | – | – | – |
| AUAUUAGCAGGAUAUAUCCGGGAUAACAUGAGGAUCACCCAUGUGACCGCUUGAUAUCCUAUAGAAGGGCUUUAUA [Mod of ViennaUCT 29 - Jieux - Exclusion 5] (Eterna round: R97, puzzle: Exclusion 5) | 35.3 | 20.6 | – | – | – | – |
